Source: the DeepSol protein solubility set

Assay: soluble on expression in E. coli; label from the status in PepcDB or PDB records

Sequence | soluble on expression in E. coli
MALNNVSLSSGDQRSRVAYRSSHGDLRPRASALAMVSGDGFLVSRPEAIHLGPRQAVRPSVRAESRRVDGGGRSPREPDGRGRSRQARFSPYPIPAVEPDLLRSVLQQRLIALGGVIAARISV | soluble
DVQLVESGGGSVQAGGSLRLSCAASGSTDSIEYMTWFRQAPGKAREGVAALYTHTGNTYYTDSVKGRFTISQDKAKNMAYLRMDSVKSEDTAIYTCGATRKYVPVRFALDQSSYDYWGQGTQVTVSSRGRHHHHHH | soluble
MGSDKIHHHHHHMKKSVMLLVCLLGLSACSTKFSYRFLDWAIGWEQEDYVTLDKTQQKAFDTLVEKMVFWHQSKELAHYVVQLKEVENLIKTNELTPLLWAEHVDIAKRHWFRVFEFAMPELLPIIMSLTDSQVKQILTKLREDEQALVKEFAGKSPEQLQKDADKRLQKQFEDWLGSVSAEQKSLIHQYNQQRLSTLDMWLEYRHEWLRQFEVALGQRADKVLLTERLTLLMTQPDELKSEQHKAFLRQNTEAFGTLLLAMNGSLSAKQSKHFYKKLGKLIQDLTELNQEALEKEFKSMKALST | not soluble
MIRFAVIGTNWITRQFVEAAHESGKYKLTAVYSRSLEQAQHFANDFSVEHLFTSLEAMAESDAIDAVYIASPNSLHFSQTQLFLSHKINVICEKPLASNLAEVDAAIACARENQVVLFEAFKTACLPNFHLLRQALPKVGKLRKVFFNYCQYSSRYQRYLDGENPNTFNPAFSNGSIMDIGFYCLASAVALFGEPKSVQATASLLASGVDAQGVVVMDYGDFSVTLQHSKVSDSVLASEIQGEAGSLVIEKLSECQKVCFVPRGSQMQDLTQPQHINTMLYEAELFATLVDEHLVDHPGLAVSRITAKLLTEIRRQTGVIFPADSVKL | soluble
MSLNIYRAASVLIDEAGKNDFEISLLGKVNDLVYDTKNEYLYAVSQKGLLAKLNASNGDVIWRQSIAPETSQLNYNPVTNFIITVDKDYLYIWNSKNGILDRKIELADGKGKLFEVNKGFVYLNPHTRKFIELDLQASFSISIERDLQLDAISFLTYAEKNYVLFKRDGQFVLQALDHNYAVYGPETVLNVPENAQLLVTEKDVIIYSSNGVIYGIHVSMADISQLLIDEYKTFEWSSIPGKRHGYSITVDSQSTPVTYLFVIIDSEFVLIDEYIHEDTEALGYIHMEDNQTFSRVFAVANQIKFAPATVITIPNQLSRPVFRLFTFAEGEISAIVILDDGTFFSFSNTELVWKREEALAYAINPSILPTTLLTSYQKSIQDEENSSEGHHHHHH | soluble
MAWTSTLPAHLLNLIKNSKYVHVATCSKDCIPSVALMNYIYVPGEKLFGQTDNKNDYIIFVSPQDTQKFYNIKENPKVALLFHDWIIANNLSVGKESISGTPTPTSIPHEEQRQSELLNLLQELNQAELNQMSASIGGETEIVNPESEESKYYKDLILKANPDAKAFIFEKNTAVVKVRIDNARVSNNENRTMFLSKGKS | soluble
EFELKDFHVDYSISHPQSQHIQIIVCFKAQDKHEANAGRYRRIKPAWCTTEDGEHVIYYRISASRVDHDITTKYAFLDRDGKPKQIHHSEKLAVELMTLHPVIRLRDSRRFPRPSHINGDSKNARIEKRINNTCRRLLAMPGHVNKGEIRSSLDAMKTLVEHYFAFRSIGKGNPRKPRDGLFYTSPSSDKGLSQYLKETNDKQSRLLLMGLLSAYLQAKGPTDLRRCARPILIIEDPEGRLHPTHLARAWSLLQLLPMQK | not soluble
MGSSHHHHHHSSGLVPRGSHMETLCQRLNVCQDKILTHYENDSTDLRDHIDYWKHMRLECAIYYKAREMGFKHINHQVVPTLAVSKNKALQAIELQLTLETIYNSQYSNEKWTLQDVSLEVYLTAPTGCIKKHGYTVEVQFDGDICNTMHYTNWTHIYICEEASVTVVEGQVDYYGLYYVHEGIRTYFVQFKDDAEKYSKNKVWEVHAGGQVILCPTSVFS | soluble
MMIIGINGSPRKNGNTIEMLKSALDGAKAQGAETELINLYDYNYKGCVSCFSCKLKGGRSYGKCALKDDLKPILEKIEKADAFILASPIYFGMVTGEMRSFMERLLFQYLVYDKDHSSLFNRKIKTGFIYTMNVPETYLDSVGYNKLFESNEATLKRIFGASEYILSTDTYQFDDYSKYEASMFDVEAKKKRREEVFPEDCKRAYEMGASFVKLEHHHHHH | not soluble
MNKAINIKKTAPLEVLHSELPYTQDPTALFHALCAGRSDCLLLESAEIDSKQNLKSLLLVDAAVRIVCEGHQVTYHALSANGQALLNIIHSNLTDRIPCKVEKAKLTLTFSTPCDTLDEDSRLREASSFDALRLVQHSFDLTDHGKFALFLGGLFAYDLVANFEPLGEAPADNQCPDYVFYVAETLMVIDHQRETCQLQATQFQPGDALHSQLKSRMREIRAQVNQKLPLPSAQSLSDVEVTTNISDAAFCDIVRDLKQYVVKGDVFQVVPSRRFRLPCPSPLAAYQRLKQSNPSPYMFYMQDERFTLFGASPESALKYEMHTNQVEIYPIAGTRRRGKRADGSIDFDLDSRIELELRTDKKENAEHMMLVDLARNDVARISQAGTRHVADLLQVDRYSHVMHLVSRVVGQLREDLDALHAYQACMNMGTLTGAPKIRAMQLIRDVEQARRGSYGGAVGYLTGEGDLDTCIVIRSAYVENGIAQVQAGAGVVYDSDPQAEADETRGKAQAVISAILYAHQGKE | not soluble
MSATINDLASFNKFFTENQHRFIRFAWTYTRDEVVAEDIVMESLMAYWENRDHMTPEINPAAYVLTVVKNKCLNYLRHLQLVNDVSDRVASHSEWELSNRIATLDACEPNALFASEVQDIIDRVISRLSATTARIFLLSRYDNKSHKEIAEIMGMTVKGVEFHISKATKELRVALKDYLVLFPFLCDFLSRN | not soluble
MAHHHHHHMRTSRGFCMSMWDSPAFEHNPLSRYWKRMMKQNGETLTAQSIPRHIHGYIEASCPRTEGLVRWFPYKKEITVDGRYVPTISDAIYSYYFPRELNDDERVKYVAIKTGRSELEVAEEVFLMRKMKLFVAQLLRNKLRSRPLRMPEGVDYSGIERRYTLGISRVAQAMGMSMYGTQSYDPVIVYSPYCDIGDCIDCICTKQLRTATQYLLCEVAVHRGIARSRMTDVTSEPKEPLSHVEPCLFEFIKLRLAILALVAKQEHYVVDHLFDGGHRYGGCLIHLFPSPLDPEIIDHEVNHIELDLDLAQKWMKHYYDHYVAPRRSG | not soluble
SSNVIIMGHKFPDMDSIGAAIGILKVAQANNKDGFIVIDPNQIGSSVQRLIGEIKKYEELWSRFITPEEAMEISNDDTLLVIVDTHKPSLVMEERLVNKIEHIVVIDHHRRGEEFIRDPLLVYMEPYASSTAELVTELLEYQPKRLKINMIEATALLAGIIVDTKSFSLRTGSRTFDAASYLRAKGADTVLVQKFLKETV | not soluble
MMAKLVVCIIDGMADPPPPAGGVTPLAAAHTPHCDTLARHSVAGLCHVIQPEAVPGSEAGLSALLCCEAAASIARGPVEALAQGDPVAPHETVWRLNLVSLGPRGNYYNPAPLLDAATETAARKMLDRALGTQGYSLLGGKGFRHLCAGTEPPVLRDGPQDVCGMTPDTGQADLNSYCPRLARAMTEANVLFRRSRMDLAVWPWGAGTMPDLPGFAETTGQTGALAGGVPLARGLALALGMTAPSIAGATGGIDTDLGAKTRAAIALAAGHDVVYLHVEAPDLHAHALDRVAKRRAIERIDAEVVGPLHMALPDATLLITCDHATDCATGRHMAIPVPFILHKPDGPQDGIATFSEAASARTGIRIDSAATLVRLALADLEHHHHHH | soluble
MKIVYWSGTGNTEKMAELIAKGIIESGKDVNTINVSDVNIDELLNEDILILGCSAMADEVLEESEFEPFIEEISTKISGKKVALFGSYGWGDGKWMRDFEERMNGYGCVVVETPLIVQNEPDEAEQDCIEFGKKIANI | soluble
MDPTDLSFSPDEINKLIETGLNTVEYFTSQQVTGTSSLGKNTIPPGVTGLLTNAAEAKIQESTNHQKGSVGGGAKPKKPRPKIAIVPADDKTVPGKPIPNPLLGLDSTPSTQTVLDLSGKTLPSGSYKGVKLAKFGKENLMTRFIEEPRENPIATSSPIDFKRGRDTGGFHRREYSIGWVGDEVKVTEWCNPSCSPITAAARRFECTCHQCPVTCSECERDT | soluble
MGSDKIHHHHHHMITVSNVSVQFGKRVLFNDVNLKFTSGNCYGIIGANGAGKSTFLRTIYGDLDPTTGTIALGPGERLSVLSQDHFKWDAYTVMDTVMMGHTVLWDIMKQREVLYAKEDFTDEDGLKVSELEEKFAELDGWNAESDAAMLLSGLGIKEDKHYTLMGELSGKEKVRVMLAQALYGNPDNLLLDEPTNDLDMETVTWLEEYLSNFEHTVLVVSHDRHFLDSVCTHTVDIDYGKINMFAGNYSFWYESSQLALRQQQNQKAKAEEKKKELEEFIRRFSANVAKSKQTTSRKKMLEKLNVEEIKPSSRKYPGIIFTPEREPGNQILEVSGLSKKTEEGVVLFSDVNFNIEKGDKVVFLSRNPRAMTAFFEIINGNMKPDAGQFNWGVTITTAYLPLDNTDFFNTDLNLVDWLSQFGEGNEVYMKGFLGRMLFSGEEVLKKVSVLSGGEKMRCMIARMQLRNANCLILDTPTNHLDLESIQAFNNNLKTYKGNILFSSHDHEFIQTVANRIIELTPNGIIDKMMEYDEYITSDHIKELRAKMYGDK | not soluble
ELYGASPDIDLGTGPTPTLGPVTPEICKQDIVFDGIAQIRGEIFFFKDRFIWRTVTPRDKPMGPLLVATFWPELPEKIDAVYEAPQEEKAVFFAGNEYWIYSASTLERGYPKPLTSLGLPPDVQRVDAAFNWSKNKKTYIFAGDKFWRYNEVKKKMDPGFPKLIADAWNAIPDNLDAVVDLQGGGHSYFFKGAYYLKLENQSLKSVKFGSIKSDWLGC | soluble
MMRTWQSKLHVTQHEVKLLVTCPEQGDVLKARLPPHARHPRALLTLLEGLSLYNGQPQRIALHVDERFRLTAGLFGDELWPGESPLVQYDVAHRARQCGRLSGIGDFRALRRGSP | not soluble
METLTLETPEARAETRTVLHVGCGAANPAKLPGDVFPAGDWRELRLDIDPGVAPDILASITGMPMVADGSVDAVWSSHNLEHLRPHEVPLALAEFHRVLRPGGFLLATLPDLQAVALLVAQGLLEEPAYVSALGPIAPLDILYGFRPAIAEGNDFMAHRTGFTAASLARHLGAAGFAEITVQTDGRFALWARAVRPA | not soluble
MGSDKIHHHHHHMGARLKHYGWGREGEGMNEAEQAFVLGRYKAKFGRDSFDTVEVAHLDDIKLREPRIVPPKSLSEICAVDVYHRAAHAYGKSYPDYVRGMLGDYDAAPDVVAYPRDEAEIAAVMDWAGGAGAALTPFGGGSSVCGGVECRVDGNRHKAAVTLDLRHLGKVLEVDATSRAALIQGGAYGPALEAQLKPHNVTLRHFPQSFEYSTLGGWIATRSGGHYASLYTHIDDFVESVRVVTPRGVLETRRLPGSGAGPSPDRMFIGSEGILGVISAAWMRLQSRPRFRAGASVRFPSFFAAARAVRAVAQAGLYPSNCRILDPQEAYNTGAADGSVAIMVLAFESGDHPVEPWMARALECCADHGGIREEAEASSGHLEGAAGLWRNAFIRMPYAREFLTPAGLINDTFETSITWERFESFHDSVKTVTEQAILDATGIKGEVTCRFTHVYPDGPAPYFSFHALGRHGELLEQWQAIKDAASDALIAAGGTITHHHAVGRDHRKWYDRQRPDLFAVALRAAKRELDPQAMLNPGVLIDP | not soluble
